The results in this text go back to paper PMC12241546, “PRELP functions via multiple interactions with intrinsically weak affinity relying on ECM anchoring and remodeling” (Scientific Reports, 2025).

B3: Recombinant extracellular domain of human p75NTR (low-affinity nerve growth factor receptor) (receptor, UniProt P08138 29-189, looked up)
chain: KEACPTGLYTHSGECCKACNLGEGVAQPCGANQTVCEPCLDSVTFSDVVSATEPCKPCTECVGLQSMSAPCVEADDAVCRCAYGYYQDETTGRCEACRVCEAGSGLVFSCQDKQNTVCEECPDGTYSDEANHVDPCLPCTVCEDTERQLRECTRWADAECE
notes: also called p75NTR ectodomain; source: Sf9 cells, purified from the culture supernatant (Ni-NTA, SEC)
B4: Recombinant human full-length PRELP (proline/arginine-rich end leucine-rich repeat protein) (natural protein, UniProt P51888 21-382, looked up)
chain: QPTRRPRPGTGPGRRPRPRPRPTPSFPQPDEPAEPTDLPPPLPPGPPSIFPDCPRECYCPPDFPSALYCDSRNLRKVPVIPPRIHYLYLQNNFITELPVESFQNATGLRWINLDNNRIRKIDQRVLEKLPGLVFLYMEKNQLEEVPSALPRNLEQLRLSQNHISRIPPGVFSKLENLLLLDLQHNRLSDGVFKPDTFHGLKNLMQLNLAHNILRKMPPRVPTAIHQLYLDSNKIETIPNGYFKSFPNLAFIRLNYNKLTDRGLPKNSFNISNLLVLHLSHNRISSVPAINNRLEHLYLNNNSIEKINGTQICPNDLVAFHDFSSDLENVPHLRYLRLDGNYLKPPIPLDLMMCFRLLQSVVI
notes: human PRELP, amino acid residues 21-382 (Uniprot numbering); source: Mimic Sf9 cells, purified from the supernatant (DDDDK-tagged Protein Purification Gel, Benzonase, SEC); not shown: FLAG, C-terminal, kept

Conditions in all cases: both partners purified
The target in test [1] is B3. Nature of the test: SPR; Biacore T200; PRELP proteins immobilised on CM5 by amine coupling (about 4000 RU; chPRELP about 600 RU for IGFI-R, 2000 RU for p75NTR); IGFI-R or p75NTR injected at 30 µL/min; 10 mM HEPES pH 7.5, 150 mM NaCl, 0.05% Tween-20, 15 °C; equilibrium curve fitting. (In general: Surface plasmon resonance follows binding to a sensor surface in real time, without labels.)

For test [2], the target named is T1, Recombinant extracellular domain of human IGFI-R (insulin-like growth factor I receptor) (human, UniProt P08069 31-935).
T1 construct: extracellular domain of human IGFI-R, amino acid residues 31-935 (Uniprot); also called IGFI-R ectodomain; source: ExpiCHO cells, purified from the culture supernatant (Ni-NTA, SEC)
The test is described as above.

The target in test [3] is T2, Recombinant mature TGFβ1 dimer (transforming growth factor β1) (human, UniProt P01137 279-390).
T2 construct: mature TGFβ1 cut from the human TGFβ1 pro-protein (expressed as amino acid residues 30-390, Uniprot, with C33S in the pro-region); source: ExpiCHO cells, transfected
Nature of the test: SPR; Biacore T200; PRELP proteins immobilised on CM5 by amine coupling (about 400 RU; chPRELP about 600 RU); TGFβ1 or TGFβRII injected at 30 µL/min; 10 mM HEPES pH 7.5, 150 mM NaCl, 50 mM arginine-HCl, 0.05% Tween-20, 15 °C; global fitting.

Test [4] concerns the target B4. Put plainly: SPR; Biacore T200; PRELP proteins immobilised on CM5 by amine coupling (about 4000 RU; chPRELP about 600 RU for IGFI-R, 2000 RU for p75NTR); IGFI-R or p75NTR injected at 30 µL/min; 10 mM HEPES pH 7.5, 150 mM NaCl, 0.05% Tween-20, 15 °C; equilibrium curve fitting.
The target in test [5] is T1, Recombinant extracellular domain of …. Described as above. This is another data set of the same source.

T2 sequence (P01137 279-390): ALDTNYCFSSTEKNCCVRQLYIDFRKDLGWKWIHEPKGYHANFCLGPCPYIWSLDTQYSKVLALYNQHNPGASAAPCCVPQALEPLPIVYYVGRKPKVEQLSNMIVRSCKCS
T1 sequence (P08069 31-935): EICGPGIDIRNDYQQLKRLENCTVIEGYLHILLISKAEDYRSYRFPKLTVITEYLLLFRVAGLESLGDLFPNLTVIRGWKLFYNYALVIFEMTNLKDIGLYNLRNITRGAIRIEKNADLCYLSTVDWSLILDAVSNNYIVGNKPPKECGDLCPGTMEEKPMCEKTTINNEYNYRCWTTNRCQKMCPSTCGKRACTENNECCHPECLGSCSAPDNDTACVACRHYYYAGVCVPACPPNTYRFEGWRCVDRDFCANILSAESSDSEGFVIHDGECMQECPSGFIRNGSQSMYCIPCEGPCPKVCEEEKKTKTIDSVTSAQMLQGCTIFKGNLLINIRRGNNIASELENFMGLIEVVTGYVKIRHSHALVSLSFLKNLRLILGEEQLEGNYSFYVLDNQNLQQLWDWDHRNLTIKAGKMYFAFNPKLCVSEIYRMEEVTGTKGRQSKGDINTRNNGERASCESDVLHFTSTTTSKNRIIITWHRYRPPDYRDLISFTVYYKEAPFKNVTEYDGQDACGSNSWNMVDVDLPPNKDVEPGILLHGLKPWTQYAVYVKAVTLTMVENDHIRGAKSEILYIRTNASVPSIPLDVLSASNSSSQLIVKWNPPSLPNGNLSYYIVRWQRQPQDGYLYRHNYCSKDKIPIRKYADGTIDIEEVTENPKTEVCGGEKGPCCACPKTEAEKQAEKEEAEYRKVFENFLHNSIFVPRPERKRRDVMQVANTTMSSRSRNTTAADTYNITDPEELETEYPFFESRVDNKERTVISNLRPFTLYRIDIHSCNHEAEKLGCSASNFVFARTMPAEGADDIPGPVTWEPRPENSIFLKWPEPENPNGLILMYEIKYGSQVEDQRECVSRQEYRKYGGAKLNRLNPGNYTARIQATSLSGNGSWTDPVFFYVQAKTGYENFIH

B1: N-terminal-truncated PRELP ΔNT24 (domain or fragment)
chain: SFPQPDEPAEPTDLPPPLPPGPPSIFPDCPRECYCPPDFPSALYCDSRNLRKVPVIPPRIHYLYLQNNFITELPVESFQNATGLRWINLDNNRIRKIDQRVLEKLPGLVFLYMEKNQLEEVPSALPRNLEQLRLSQNHISRIPPGVFSKLENLLLLDLQHNRLSDGVFKPDTFHGLKNLMQLNLAHNILRKMPPRVPTAIHQLYLDSNKIETIPNGYFKSFPNLAFIRLNYNKLTDRGLPKNSFNISNLLVLHLSHNRISSVPAINNRLEHLYLNNNSIEKINGTQICPNDLVAFHDFSSDLENVPHLRYLRLDGNYLKPPIPLDLMMCFRLLQSVVI
modifications: secreted from insect cells (Mimic Sf9), possible N-glycans; C-terminal FLAG tag omitted. The start at 45 is 24 residues removed from the printed mature construct 21-382, which matches removal of the …
In general, Kd refers to the concentration at which binding is half-saturated. Broadly, the koff is the rate constant with which the complex falls apart. A word on the kon: it is the second-order rate constant of association. In the case of B1, the Kd in test [1] was found to be 11.3 µM; in test [2] it was 3.9 µM; in test [3], 0.512 µM. Also, in test [3], the off-rate constant (koff) is 0.142 s⁻¹. Also, in test [3], the association rate constant (kon) was 277000 M⁻¹ s⁻¹.

B2: N-terminal-truncated PRELP ΔNT50 (domain or fragment)
chain: PDCPRECYCPPDFPSALYCDSRNLRKVPVIPPRIHYLYLQNNFITELPVESFQNATGLRWINLDNNRIRKIDQRVLEKLPGLVFLYMEKNQLEEVPSALPRNLEQLRLSQNHISRIPPGVFSKLENLLLLDLQHNRLSDGVFKPDTFHGLKNLMQLNLAHNILRKMPPRVPTAIHQLYLDSNKIETIPNGYFKSFPNLAFIRLNYNKLTDRGLPKNSFNISNLLVLHLSHNRISSVPAINNRLEHLYLNNNSIEKINGTQICPNDLVAFHDFSSDLENVPHLRYLRLDGNYLKPPIPLDLMMCFRLLQSVVI
modifications: secreted from insect cells (Mimic Sf9), possible N-glycans; C-terminal FLAG tag omitted. The start at 71 is 50 residues removed from the printed mature construct 21-382, just before the Cys-rich …
On to B2, for which, in test [1], the equilibrium dissociation constant (Kd) turned out to be 11.7 µM. Also, the Kd in test [2] turned out to be 6.97 µM. In addition, in test [3], the Kd was found to be 1.55 µM, the koff was 0.169 s⁻¹ and the kon came out at 75100 M⁻¹ s⁻¹.
In the case of B3, in test [4], the Kd was 12.7 µM.
As for B4, the Kd in test [5] came out at 7.09 µM.

B5: Recombinant chimeric PRELP (human PRELP 1-268 joined to Listeria monocytogenes internalin B 189-248) (other)
chain: QPTRRPRPGTGPGRRPRPRPRPTPSFPQPDEPAEPTDLPPPLPPGPPSIFPDCPRECYCPPDFPSALYCDSRNLRKVPVIPPRIHYLYLQNNFITELPVESFQNATGLRWINLDNNRIRKIDQRVLEKLPGLVFLYMEKNQLEEVPSALPRNLEQLRLSQNHISRIPPGVFSKLENLLLLDLQHNRLSDGVFKPDTFHGLKNLMQLNLAHNILRKMPPRVPTAIHQLYLDSNKIETIPNGYFKSFPNLDTLSLEDNQISDIVPLAGLTKLQNLYLSKNHISDLRALAGLKNLDVLELFSQECLNKPIN
notes: signal peptide in the construct; human PRELP, amino acid residues 1-268 (Uniprot), N-terminal half portion with LRR1-7; also called chPRELP; source: Expi293 cells, transfected, purified from the culture supernatant (FLAG-tag purification, SEC)
Take B5: the dissociation constant (Kd) in test [1] was determined as 14.5 µM. Also, in test [2], the dissociation constant (Kd) came to 15.4 µM. Moreover, in test [3], the Kd turned out to be 1.21 µM, the koff turned out to be 0.362 s⁻¹ and the association rate constant (kon) was 241000 M⁻¹ s⁻¹.
